Source: patent US20250360126

Assays:
[1] = tested on: T1, NPM2 (embryonic NPM1 paralog)
T1 sequence (Q86SE8 1-214, species assumed, looked up): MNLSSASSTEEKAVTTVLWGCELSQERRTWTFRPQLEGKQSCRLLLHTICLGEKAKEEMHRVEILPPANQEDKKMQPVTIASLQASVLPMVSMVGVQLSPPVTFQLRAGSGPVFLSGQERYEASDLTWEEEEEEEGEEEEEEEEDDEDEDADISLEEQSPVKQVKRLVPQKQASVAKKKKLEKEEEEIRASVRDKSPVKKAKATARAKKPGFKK

[2] = molecular target: Nucleophosmin NPM1, wild type, full-length (UniProt P06748)
[3] = tested on: Nap1 histone chaperone (a TTLL4 substrate protein)

Nucleophosmin NPM1, wild type, full-length, sequence (P06748 whole entry): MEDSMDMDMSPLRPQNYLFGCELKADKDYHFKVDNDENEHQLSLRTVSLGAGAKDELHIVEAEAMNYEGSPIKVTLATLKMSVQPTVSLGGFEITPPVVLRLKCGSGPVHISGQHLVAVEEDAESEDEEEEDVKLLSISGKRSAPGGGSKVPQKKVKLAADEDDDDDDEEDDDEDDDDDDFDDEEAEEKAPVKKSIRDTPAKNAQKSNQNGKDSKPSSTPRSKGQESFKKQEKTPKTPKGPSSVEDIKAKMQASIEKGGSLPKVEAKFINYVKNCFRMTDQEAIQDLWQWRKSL

active human TTLL4 enzyme (Tubulin-Tyrosine Ligase Like 4), recombinant
in vitro glutamate-glutamylation [1]: capable of catalyzing in vitro glutamate-glutamylation of Npm1, Npm2, and Nap1 histone chaperone substrates (not shown)
glutamate-glutamylation of substrate (FIG. 2B) [2]: TTLL4 glutamylates full-length NPM1
in vitro glutamate-glutamylation [2]: capable of catalyzing in vitro glutamate-glutamylation of Npm1, Npm2, and Nap1 histone chaperone substrates (not shown)
in vitro glutamate-glutamylation, immunoblot time course (FIG. 10) [2]: AML-mutant NPM1c is a better in vitro substrate for TTLL4 than the wildtype NPM1
in vitro glutamate-glutamylation [3]: capable of catalyzing in vitro glutamate-glutamylation of Npm1, Npm2, and Nap1 histone chaperone substrates (not shown)
kinase reaction, 32P-labeled phosphorylation (FIG. 7B) [3]: TTLL4 dependent 32P-labeled phosphorylation of Nap1 (a TTLL4 substrate protein)
in vitro glutamate-glutamylation, immunoblot time course (FIG. 10) (NPM1c (AML-mutant NPM1)): AML-mutant NPM1c is a better in vitro substrate for TTLL4 than the wildtype NPM1
